Test [1] addresses DRB1*1302 (human, UniProt P01903 26-216, limits assumed). The test can be described thus: inhibition of 125I-labelled probe peptide binding to purified HLA class II.
Test [2] addresses DRB1*1101 (human, UniProt P01903 26-216, limits assumed). Described as above.
Test [3] addresses DRB1*0901 (human, UniProt P01903 26-216, limits assumed). The test is described as above.
Test [4] addresses HLA-DR molecule DRB1*1302 (human). The test can be described thus: competition vs 125I probe, purified HLA.
The target of test [5] is HLA-DR molecule DRB1*0404 (human). Briefly: competition vs 125I probe, purified HLA.
Test [6] addresses HLA-DR molecule DRB1*1101 (human). Briefly: competition vs 125I probe, purified HLA.
Test [7] deals with HLA-DR molecule DRB4*0101 (human). The test can be described thus: competition vs 125I probe, purified HLA.
Test [8] deals with HLA-DR molecule DRB5*0101 (human). Briefly: competition vs 125I probe, purified HLA.
Test [9] deals with HLA-DR molecule DRB1*0401 (human). The test can be described thus: competition vs 125I probe, purified HLA.
Test [10] has as its target HLA-DR molecule DRB1*0405 (human). Briefly: competition vs 125I probe, purified HLA.
For test [11], the target named is HLA-DR molecule DRB1*0901 (human). Briefly: competition vs 125I probe, purified HLA.
The target of test [12] is HLA-DR molecule DRB1*0802 (human). Briefly: competition vs 125I probe, purified HLA.
For test [13], the target named is HLA-DR molecule DRB1*0301 (human). The test can be described thus: competition vs 125I probe, purified HLA.
Test [14] addresses HLA-DR molecule DRB1*0101 (human). Briefly: competition vs 125I probe, purified HLA.
Test [15] deals with HLA-DR molecule DRB1*0701 (human). Briefly: competition vs 125I probe, purified HLA.
In the next test the target is HLA-DR DRB4*0101 (human). Briefly: competition with 125I probe, purified MHC II.
Another test addresses HLA-DR DRB1*0101 (human). The test can be described thus: competition with 125I probe, purified MHC II.
In another test the target is HLA-DR DRB1*0401 (human). Briefly: competition with 125I probe, purified MHC II.
The next test concerns the target HLA-DR DRB5*0101 (human). The test can be described thus: competition with 125I probe, purified MHC II.
The target of test [16] is HLA-DR molecule DRB5*0101 (DR2w2a) (human). Briefly: inhibition of radiolabelled probe peptide binding to purified MHC class II.
The target in test [17] is HLA-DR molecule DRB1*1101 (DR5w11) (human). Described as above.
Test [18] has as its target HLA-DR molecule DRB1*0901 (DR9) (human). The description is as above.
Test [19] has as its target HLA-DR molecule DRB1*1302 (DR6w19) (human). The test is described as above.
A further test concerns the target T1, HLA-DR DRB1*0405 (human).
T1 chain 1: not shown
T1 chain 2: not shown
The test can be described thus: competition with 125I probe, purified MHC II.

In a further test the target is HLA-DR DRB3*0101 (human). Briefly: competition with 125I probe, purified MHC II.
In the next test the target is HLA-DR DRB1*0802 (human). Briefly: competition with 125I probe, purified MHC II.
The target of the next test is DRB1*0301 (human, UniProt P01903 26-216, limits assumed). Briefly: competition vs 125I probe peptide, purified MHC II.
The next test addresses DRB1*0802 (human, UniProt P01903 26-216, limits assumed). Briefly: competition vs 125I probe peptide, purified MHC II.
The target of another test is DRB1*0404 (human, UniProt P01903 26-216, limits assumed). Briefly: competition vs 125I probe peptide, purified MHC II.
The target in another test is DRB5*0101 (human, UniProt P01903 26-216, limits assumed). The test can be described thus: competition vs 125I probe peptide, purified MHC II.
For a further test, the target named is DRB1*0701 (human, UniProt P01903 26-216, limits assumed). Briefly: competition vs 125I probe peptide, purified MHC II.
Test [20] concerns the target DRB1*0901 (human, UniProt P01903 26-216, limits assumed). The test can be described thus: competition vs 125I probe peptide, purified MHC II.
For the next test, the target named is DRB1*0405 (human, UniProt P01903 26-216, limits assumed). Briefly: competition vs 125I probe peptide, purified MHC II.
For another test, the target named is DRB1*0101 (human, UniProt P01903 26-216, limits assumed). Briefly: competition vs 125I probe peptide, purified MHC II.
The next test deals with DRB1*0401 (human, UniProt P01903 26-216, limits assumed). The test can be described thus: competition vs 125I probe peptide, purified MHC II.
The target in another test is DRB4*0101 (human, UniProt P01903 26-216, limits assumed). The test can be described thus: competition vs 125I probe peptide, purified MHC II.
The target of test [21] is DRB1*1302 (human, UniProt P01903 26-216, limits assumed). The test can be described thus: competition vs 125I probe peptide, purified MHC II.
Test [22] deals with DRB1*1101 (human, UniProt P01903 26-216, limits assumed). The test can be described thus: competition vs 125I probe peptide, purified MHC II.

What is called IC50 is the concentration at which inhibition is half-maximal. Higher therefore signals weaker potency.

For DTFRKLFRVYSNDLR [DTFRKLFRVYSNDLR, listing 1 of 2 here], the concentration for half-maximal inhibition (IC50) with DRB1*1302 [1] was found to be 66 nM; with DRB1*1101 [2] it was 3.6 nM; with DRB1*0901 [3], 1640 nM.
The molecule DTFRKLFRVYSNFGR [DTFRKLFRVYSNFGR, listing 1 of 2 here] yielded an IC50 with DRB1*1101 [2] of 2.8 nM.
Consider GLRSLGTLLRALGAQ [EPO 101 analog GLRSLGTLLRALGAQ], for which the IC50 in [4] came out at 739 nM; in test [5], 13 nM; in test [6], 1.4 nM; in test [7], 473 nM; in test [8], 13 nM.
Consider GLRSLTTLTRALGAQ [EPO 101 analog GLRSLTTLTRALGAQ], for which the 50% inhibitory concentration (IC50) was 394 nM in test [9], 3 nM in test [6] and 13 nM in [8].
Consider GLRSLTTLSRALGAQ [EPO 101 analog GLRSLTTLSRALGAQ], for which the half-maximal inhibitory concentration (IC50) in [4] worked out at 440 nM; in test [5] it was 13 nM; in test [6] it was 1.4 nM; in test [10], 719 nM; in test [11], 2230 nM.
As to GLRSLTTLPRALGAQ [EPO 101 analog GLRSLTTLPRALGAQ], the half-maximal inhibitory concentration (IC50) in test [5] came to 13 nM; in [6], 0.62 nM; in test [10] it was 524 nM; in test [12], 7.3 nM; in test [7], 112 nM; in [8] it was 2.8 nM.
With GLRSLTTLARALGAQ [EPO 101 analog GLRSLTTLARALGAQ], the IC50 worked out at 610 nM in test [4]; 13 nM in test [5]; 0.93 nM in test [6]; 7.1 nM in test [12]; 234 nM in [13].
On to GLRSLTTLLGALGAQ [EPO 101 analog GLRSLTTLLGALGAQ], for which, in test [14], the IC50 is 1.3 nM. That is a single-digit nanomolar value.
In the case of GLRSLTTLNRALGAQ [EPO 101 analog GLRSLTTLNRALGAQ], the IC50 in test [9] was found to be 28 nM; in [6], 0.97 nM; in [7], 167 nM; in test [11] it was 337 nM; in test [8] it was 0.89 nM.
For the molecule GLRSLTTLLDALGAQ [EPO 101 analog GLRSLTTLLDALGAQ], the IC50 was 9.3 nM in test [5] and 240 nM in test [12].
For the molecule GLRSLTTRLRALGAQ [EPO 101 analog GLRSLTTRLRALGAQ], the concentration for half-maximal inhibition (IC50) was determined as 211 nM in test [9], 4370 nM in test [15] and 2.4 nM in [14].
For YLDPLIRGLLARPAKLQV [NP7 (TPO Y535-551)], the IC50 was found to be 341 nM in the test with HLA-DR DRB4*0101, 1.6 nM with HLA-DR DRB1*0101, 687 nM in the test with HLA-DR DRB1*0401 and 476 nM in the test with HLA-DR DRB5*0101.
Consider GLRSLTTRLRALGAQ [EPO 101 analog peptide GLRSLTTRLRALGAQ (SEQ ID NO: 192)], for which the IC50 in test [16] came to 13 nM; in test [17] it was 0.79 nM.
For GLRSLTTLLDALGAQ [EPO 101 analog peptide GLRSLTTLLDALGAQ (SEQ ID NO: 193)], the IC50 came out at 277 nM in test [18] and 953 nM in test [19].
Turning to PLGFFPDHQLDPAFGANSNNPDWDFNP (modifications not checked) [HBV Pre S1 21-47], the IC50 with HLA-DR DRB1*0405 (human) was found to be 31 nM.
With DTPYLDITYHFVMQRLPL [Torp. Ach Rec. 195-212], the IC50 with HLA-DR DRB4*0101 is 261 nM; in the test with HLA-DR DRB1*0101, 385 nM; in the test with HLA-DR DRB1*0401, 160 nM; with HLA-DR DRB3*0101, 800 nM; with HLA-DR DRB1*0802, 555 nM.
Turning to DTFRKLDRVYSNFLR, the half-maximal inhibitory concentration (IC50) amounted to 2810 nM with DRB1*0301 and 87 nM with DRB1*0802.
On to DTFRKQFRVYSNFLR, for which the IC50 with DRB1*0404 was 270 nM; in the test with DRB5*0101 it was 4.9 nM; with DRB1*0802 it was 81 nM; with DRB1*0701 it was 3000 nM.
For the molecule DTPRKLFRVYSNFLR, the IC50 was 28 nM in the test with DRB1*0901 [20]; 6.9 nM with DRB1*0405; 13 nM with DRB1*0101; 40 nM with DRB1*0401; 418 nM in the test with DRB4*0101; 87 nM with DRB1*0701.
With DTGRKLFRVYSNFLR, the half-maximal inhibitory concentration (IC50) with DRB1*0404 came to 175 nM; in the test with DRB1*1302 [21], 7.5 nM; with DRB1*0401, 46 nM; with DRB1*0802, 53 nM; with DRB1*0701, 312 nM.
With DTFRKLFRVYSNDLR [DTFRKLFRVYSNDLR, listing 2 of 2 here], the IC50 in the test with DRB1*0405 came to 487 nM; with DRB1*0404, 812 nM; with DRB1*0701 it was 817 nM.
Take DTKRKLFRVYSNFLR: the IC50 came out at 13 nM with DRB1*0101, 4.9 nM with DRB1*1302 [21], 6490 nM with DRB1*0301 and 738 nM with DRB4*0101.
Take DTFRKNFRVYSNFLR: the IC50 with DRB1*1101 [22] worked out at 5 nM; in the test with DRB1*0404 it was 922 nM; in the test with DRB1*0101, 62 nM; in the test with DRB1*0401 it was 91 nM.
Consider DTFRKLFRVYSNFGR [DTFRKLFRVYSNFGR, listing 2 of 2 here], for which the half-inhibitory concentration (IC50) with DRB1*0401 was found to be 50 nM.

The record behind these values is patent publication US20070184519A1 (published 2007).
